# Test results from patent US10800813 (Bicycle, dated 2020).
# Like-named read-outs stand apart in the source and are kept apart here. Numbered stars: 1 amine (or outer) side, 2 acyl side, 3 side chain; on linkers, the order of the positions; unused ones are H or OH. Bridge positions count the residues as written; N and C are the ends. Square brackets hold non-standard residues; d marks the D form. Ends that are not written are not given here. Phe(4-guanidino) = N=C(N)Nc1ccc(C[C@H](N)C(=O)O)cc1; TBMB = c1c(C[*:1])cc(C[*:3])cc1C[*:2]; NMeR = CN[C@@H](CCCNC(=N)N)C(=O)O; hArg = N=C(N)NCCCC[C@H](N)C(=O)O; Pen = CC(C)(S)[C@H](N)C(=O)O; NMeS = CN[C@@H](CO)C(=O)O; Aze = O=C(O)[C@@H]1CCN1; Abu = CC[C@H](N)C(=O)O; Sar = CNCC(=O)O
# B1: Ac-(06-34-18) Aze3 HomoArg5 (peptide)
# peptide: Ac-CSW[Aze]A[hArg]CLHQDLC-NH2
# modifications: linker 1-7-13 via TBMB
# SMILES: CC(=O)N[C@H]1CSCc2cc3cc(c2)CSC[C@H](NC(=O)[C@H](CCCCNC(=N)N)NC(=O)[C@H](C)NC(=O)[C@@H]2CCN2C(=O)[C@H](Cc2c[nH]c4ccccc24)NC(=O)[C@H](CO)NC1=O)C(=O)N[C@@H](CC(C)C)C(=O)N[C@@H](Cc1c[nH]cn1)C(=O)N[C@@H](CCC(N)=O)C(=O)N[C@@H](CC(=O)O)C(=O)N[C@@H](CC(C)C)C(=O)N[C@H](C(N)=O)CSC3
# B2: Ac-(06-34-18) 4GuanPhe5 (peptide)
# peptide: Ac-CSWPA[Phe(4-guanidino)]CLHQDLC-NH2
# modifications: linker 1-7-13 via TBMB
# SMILES: CC(=O)N[C@H]1CSCc2cc3cc(c2)CSC[C@H](NC(=O)[C@H](Cc2ccc(NC(=N)N)cc2)NC(=O)[C@H](C)NC(=O)[C@@H]2CCCN2C(=O)[C@H](Cc2c[nH]c4ccccc24)NC(=O)[C@H](CO)NC1=O)C(=O)N[C@@H](CC(C)C)C(=O)N[C@@H](Cc1c[nH]cn1)C(=O)N[C@@H](CCC(N)=O)C(=O)N[C@@H](CC(=O)O)C(=O)N[C@@H](CC(C)C)C(=O)N[C@H](C(N)=O)CSC3
# B3: Ac-(06-34-18) Aze3 NMeArg5 (peptide)
# peptide: Ac-CSW[Aze]A[NMeR]CLHQDLC-NH2
# modifications: linker 1-7-13 via TBMB
# SMILES: CC(=O)N[C@H]1CSCc2cc3cc(c2)CSC[C@H](NC(=O)[C@H](CCCNC(=N)N)N(C)C(=O)[C@H](C)NC(=O)[C@@H]2CCN2C(=O)[C@H](Cc2c[nH]c4ccccc24)NC(=O)[C@H](CO)NC1=O)C(=O)N[C@@H](CC(C)C)C(=O)N[C@@H](Cc1c[nH]cn1)C(=O)N[C@@H](CCC(N)=O)C(=O)N[C@@H](CC(=O)O)C(=O)N[C@@H](CC(C)C)C(=O)N[C@H](C(N)=O)CSC3
# B4: Ac-(06-34-18) NMeArg5 (peptide)
# peptide: Ac-CSWPA[NMeR]CLHQDLC-NH2
# modifications: linker 1-7-13 via TBMB
# SMILES: CC(=O)N[C@H]1CSCc2cc3cc(c2)CSC[C@H](NC(=O)[C@H](CCCNC(=N)N)N(C)C(=O)[C@H](C)NC(=O)[C@@H]2CCCN2C(=O)[C@H](Cc2c[nH]c4ccccc24)NC(=O)[C@H](CO)NC1=O)C(=O)N[C@@H](CC(C)C)C(=O)N[C@@H](Cc1c[nH]cn1)C(=O)N[C@@H](CCC(N)=O)C(=O)N[C@@H](CC(=O)O)C(=O)N[C@@H](CC(C)C)C(=O)N[C@H](C(N)=O)CSC3
# B5: Ac-(06-34-18) Aze3 4GuanPhe5 (peptide)
# peptide: Ac-CSW[Aze]A[Phe(4-guanidino)]CLHQDLC-NH2
# modifications: linker 1-7-13 via TBMB
# SMILES: CC(=O)N[C@H]1CSCc2cc3cc(c2)CSC[C@H](NC(=O)[C@H](Cc2ccc(NC(=N)N)cc2)NC(=O)[C@H](C)NC(=O)[C@@H]2CCN2C(=O)[C@H](Cc2c[nH]c4ccccc24)NC(=O)[C@H](CO)NC1=O)C(=O)N[C@@H](CC(C)C)C(=O)N[C@@H](Cc1c[nH]cn1)C(=O)N[C@@H](CCC(N)=O)C(=O)N[C@@H](CC(=O)O)C(=O)N[C@@H](CC(C)C)C(=O)N[C@H](C(N)=O)CSC3
# B6: Ac-(06-34-18) FPAR (peptide)
# peptide: Ac-CSFPARCLHQDLC-NH2
# modifications: linker 1-7-13 via TBMB
# SMILES: CC(=O)N[C@H]1CSCc2cc3cc(c2)CSC[C@H](NC(=O)[C@H](CCCNC(=N)N)NC(=O)[C@H](C)NC(=O)[C@@H]2CCCN2C(=O)[C@H](Cc2ccccc2)NC(=O)[C@H](CO)NC1=O)C(=O)N[C@@H](CC(C)C)C(=O)N[C@@H](Cc1c[nH]cn1)C(=O)N[C@@H](CCC(N)=O)C(=O)N[C@@H](CC(=O)O)C(=O)N[C@@H](CC(C)C)C(=O)N[C@H](C(N)=O)CSC3
# B7: Ac-(06-34-18) WPSR (peptide)
# peptide: Ac-CSWPSRCLHQDLC-NH2
# modifications: linker 1-7-13 via TBMB
# SMILES: CC(=O)N[C@H]1CSCc2cc3cc(c2)CSC[C@H](NC(=O)[C@H](CCCNC(=N)N)NC(=O)[C@H](CO)NC(=O)[C@@H]2CCCN2C(=O)[C@H](Cc2c[nH]c4ccccc24)NC(=O)[C@H](CO)NC1=O)C(=O)N[C@@H](CC(C)C)C(=O)N[C@@H](Cc1c[nH]cn1)C(=O)N[C@@H](CCC(N)=O)C(=O)N[C@@H](CC(=O)O)C(=O)N[C@@H](CC(C)C)C(=O)N[C@H](C(N)=O)CSC3
# B8: Ac-(06-34-18) WPYR (peptide)
# peptide: Ac-CSWPYRCLHQDLC-NH2
# modifications: linker 1-7-13 via TBMB
# SMILES: CC(=O)N[C@H]1CSCc2cc3cc(c2)CSC[C@H](NC(=O)[C@H](CCCNC(=N)N)NC(=O)[C@H](Cc2ccc(O)cc2)NC(=O)[C@@H]2CCCN2C(=O)[C@H](Cc2c[nH]c4ccccc24)NC(=O)[C@H](CO)NC1=O)C(=O)N[C@@H](CC(C)C)C(=O)N[C@@H](Cc1c[nH]cn1)C(=O)N[C@@H](CCC(N)=O)C(=O)N[C@@H](CC(=O)O)C(=O)N[C@@H](CC(C)C)C(=O)N[C@H](C(N)=O)CSC3
# B9: Ac-(06-34-18) Cys2ToPen2 (peptide)
# peptide: Ac-CSWPAR[Pen]LHQDLC-NH2
# modifications: linker 1-7-13 via TBMB
# SMILES: CC(=O)N[C@H]1CSCc2cc3cc(c2)CSC(C)(C)[C@H](NC(=O)[C@H](CCCNC(=N)N)NC(=O)[C@H](C)NC(=O)[C@@H]2CCCN2C(=O)[C@H](Cc2c[nH]c4ccccc24)NC(=O)[C@H](CO)NC1=O)C(=O)N[C@@H](CC(C)C)C(=O)N[C@@H](Cc1c[nH]cn1)C(=O)N[C@@H](CCC(N)=O)C(=O)N[C@@H](CC(=O)O)C(=O)N[C@@H](CC(C)C)C(=O)N[C@H](C(N)=O)CSC3
# Experiments:
# [1] = target: T1, human plasma Kallikrein (human, UniProt P03952 20-638, limits assumed); assay: enzyme inhibition assay
# T1 construct: also called hPK; human PK
# T1 sequence (P03952 20-638 limits assumed): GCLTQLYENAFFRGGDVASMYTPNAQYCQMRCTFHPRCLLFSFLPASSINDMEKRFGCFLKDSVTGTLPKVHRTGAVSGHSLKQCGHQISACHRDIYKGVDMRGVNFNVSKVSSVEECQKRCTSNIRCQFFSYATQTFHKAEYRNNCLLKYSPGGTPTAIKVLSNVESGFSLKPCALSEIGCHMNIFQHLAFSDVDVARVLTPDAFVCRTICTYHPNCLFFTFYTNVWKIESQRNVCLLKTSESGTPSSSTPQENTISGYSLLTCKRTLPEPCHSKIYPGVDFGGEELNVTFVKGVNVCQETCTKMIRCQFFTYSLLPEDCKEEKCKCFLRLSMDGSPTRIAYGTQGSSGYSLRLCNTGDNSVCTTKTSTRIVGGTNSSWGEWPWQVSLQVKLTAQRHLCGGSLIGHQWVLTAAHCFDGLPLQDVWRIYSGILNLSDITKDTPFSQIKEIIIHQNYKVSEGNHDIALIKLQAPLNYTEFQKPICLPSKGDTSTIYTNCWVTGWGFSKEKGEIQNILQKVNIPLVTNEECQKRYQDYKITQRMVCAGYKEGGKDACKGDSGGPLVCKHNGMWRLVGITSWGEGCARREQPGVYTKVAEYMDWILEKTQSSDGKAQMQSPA
# [2] = target: T1, human plasma Kallikrein; assay: enzyme inhibition assay; remark: listed apart in the source
# [3] = target: T1, human plasma Kallikrein; assay: enzyme inhibition assay; remark: listed apart in the source
# [4] = target: T2, Rat plasma Kallikrein (rat, UniProt P14272 391-638, limits assumed); assay: enzyme inhibition assay; values relative, not absolute
# T2 construct: domain: catalytic domain; also called rPK; rat PK
# T2 sequence (P14272 391-638 limits assumed): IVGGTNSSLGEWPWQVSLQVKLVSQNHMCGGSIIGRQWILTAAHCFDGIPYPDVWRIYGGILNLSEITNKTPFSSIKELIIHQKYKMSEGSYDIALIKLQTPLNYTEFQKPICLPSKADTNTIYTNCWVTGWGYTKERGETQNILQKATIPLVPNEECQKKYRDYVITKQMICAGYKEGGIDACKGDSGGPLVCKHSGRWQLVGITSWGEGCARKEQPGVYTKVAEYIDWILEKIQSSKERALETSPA
# [5] = target: T1, human plasma Kallikrein; assay: enzyme inhibition assay; remark: listed apart in the source
# [6] = target: T1, human plasma Kallikrein; assay: enzyme inhibition assay; remark: listed apart in the source
# [7] = target: T1, human plasma Kallikrein; assay: enzyme inhibition assay; remark: listed apart in the source
# [8] = target: T1, human plasma Kallikrein; assay: enzyme inhibition assay; remark: listed apart in the source
# [9] = target: T1, human plasma Kallikrein; assay: enzyme inhibition assay; remark: listed apart in the source
# [10] = target: T2, Rat plasma Kallikrein; assay: enzyme inhibition assay
# [11] = target: T3, Monkey plasma Kallikrein (monkey (Macaca mulatta), UniProt A0A1D5Q7U7 391-638); assay: enzyme inhibition assay
# T3 construct: domain: catalytic domain; also called mPK
# T3 sequence (A0A1D5Q7U7 entry or part of it): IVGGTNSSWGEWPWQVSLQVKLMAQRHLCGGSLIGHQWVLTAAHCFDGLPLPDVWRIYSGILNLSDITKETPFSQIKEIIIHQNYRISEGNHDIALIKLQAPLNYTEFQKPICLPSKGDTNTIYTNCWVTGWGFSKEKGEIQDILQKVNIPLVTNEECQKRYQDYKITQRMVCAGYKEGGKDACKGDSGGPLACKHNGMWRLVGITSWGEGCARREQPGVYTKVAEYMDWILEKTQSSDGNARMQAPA
# [12] = target: T1, human plasma Kallikrein; assay: enzyme inhibition assay; remark: listed apart in the source
# [13] = target: T2, Rat plasma Kallikrein; assay: enzyme inhibition assay; remark: listed apart in the source
# [14] = target: T1, human plasma Kallikrein; assay: enzyme inhibition assay; remark: listed apart in the source
# [15] = target: T1, human plasma Kallikrein; assay: enzyme inhibition assay; remark: listed apart in the source
binder,measurement,setting,value
Ac-CSW[Aze][Abu][Phe(4-guanidino)]CLHQDLC-NH2 (linker 1-7-13 via TBMB) [Ac-(06-34-18) Aze3 Aba4 4GuanPhe5],Ki,[1],0.2 nM
B1,Ki,[2],0.14 nM
B2,Ki,[3],0.3 nM
same,IC50,[4],21 nM
same,Ki,[2],0.34 nM
B3,Ki,[2],1.3 nM
B4,IC50,[4],98 nM
same,fold reduction in affinity against wildtype peptide,[5],20 fold
same,Ki,[6],3.5 nM
same,Ki,[2],3.5 nM
B5,Ki,[2],0.17 nM
B6,Ki,[7],6.28 nM
same,fold change in Ki against WPAR parent,[5],40 fold
B7,Ki,[7],0.44 nM
B8,Ki,[7],0.41 nM
"AC[Sar]WPARC[Sar]HQDLCA (linker 2-8-14 via TBMB; not fully specified (N-terminus, C-terminus), also called AC N-MeGWPARCN-MeGHQDLCA) [06-34-03 - N-MeGly1,6]",Ki,[8],24.8 nM
"ACRWPARCTHQNYCA (linker 2-8-14 via TBMB; not fully specified (N-terminus, C-terminus), also called PK106) [06-54 (2A2)]",Ki,[9],0.49 nM
same,Ki,[10],7 nM
same,Ki,[11],6 nM
same,Ki,[12],5 nM
"ACSWPARCLHQDLCA (linker 2-8-14 via TBMB; not fully specified (N-terminus, C-terminus)) [06-34-18 (01 + 05)]",IC50,[13],0.56 nM
same,IC50,[14],0.07 nM
same,Ki,[8],0.04 nM
"AC[NMeS]WPARCLHQDLCA (linker 2-8-14 via TBMB; not fully specified (N-terminus, C-terminus)) [06-34-18 -N-MeSer1]",fold loss in potency against the parent,[5],10 fold
same,Ki,[8],0.56 nM
Ac-CSW[Aze][Abu][NMeR]CLHQDLC-NH2 (linker 1-7-13 via TBMB) [Ac-(06-34-18) Aze3 Aba4 NMeArg5],Ki,[1],2.8 nM
Ac-CSWPA[hArg]CLHQDLC-NH2 (linker 1-7-13 via TBMB) [Ac-(06-34-18) HomoArg5],IC50,[4],64 nM
B9,Ki,[15],2160 nM
Ac-CSW[Aze][Abu][hArg]CLHQDLC-NH2 (linker 1-7-13 via TBMB) [Ac-(06-34-18) Aze3 Aba4 HomoArg5],Ki,[1],0.9 nM
"ACAWPARCAHQDLCA (linker 2-8-14 via TBMB; not fully specified (N-terminus, C-terminus), also called R1A/V6A) [06-34-03 - Ala1,6]",Ki,[8],0.147 nM
